Experiments:
[1] = target: albumin (Sigma A9731) (human) (UniProt P02768); test: SPR (CM5 chip), albumin immobilised, FcRn in solution, pH 5.8, 25 C
[2] = target: albumin (Sigma A9731) (human) (UniProt P02768); test: SPR (C1 chip), FcRn-biotin on surface, albumin injected, pH 5.8, 25 C
human IgG4 (human) [3] = test: SPR (C1 chip), FcRn-biotin on surface, IgG injected, pH 5.8; estimated from limited surface saturation
human IgG3 (human) [4] = target: human IgG3 (human) (UniProt P01860); test: as above
human IgG1 (human) = test: as above
human IgG2 (human) = test: as above
human IgG4 (human) [5] = test: SPR (CM5 chip), IgG immobilised, FcRn in solution, pH 5.8, 25 C
human IgG3 (human) [6] = target: human IgG3 (human) (UniProt P01860); test: as above

Sequence of human IgG3 (human) (P01860 other isoform, or with tags, fused parts or gaps): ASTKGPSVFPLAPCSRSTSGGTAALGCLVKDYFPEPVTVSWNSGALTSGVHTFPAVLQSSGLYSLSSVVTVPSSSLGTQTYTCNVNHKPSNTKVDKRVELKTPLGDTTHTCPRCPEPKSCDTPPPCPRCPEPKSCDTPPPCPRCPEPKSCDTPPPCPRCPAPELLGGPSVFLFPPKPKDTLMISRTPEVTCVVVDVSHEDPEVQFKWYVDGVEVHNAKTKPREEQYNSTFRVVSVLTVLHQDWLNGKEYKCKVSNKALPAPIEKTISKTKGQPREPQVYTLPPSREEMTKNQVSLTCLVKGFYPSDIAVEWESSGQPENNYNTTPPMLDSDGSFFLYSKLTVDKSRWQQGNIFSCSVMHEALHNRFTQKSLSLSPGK
Sequence of human IgG2 (human) (Fc, as listed by the source limits assumed): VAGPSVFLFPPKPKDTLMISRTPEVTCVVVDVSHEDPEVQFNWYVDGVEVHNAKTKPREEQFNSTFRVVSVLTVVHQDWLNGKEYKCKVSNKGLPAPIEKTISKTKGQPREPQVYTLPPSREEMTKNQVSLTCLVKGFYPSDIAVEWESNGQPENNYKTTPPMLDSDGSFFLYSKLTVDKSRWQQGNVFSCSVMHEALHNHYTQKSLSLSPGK

Kd [1] [nM]	Kd [2] [nM]	Kd (human IgG4 (human) [3]) [nM]	Kd (human IgG3 (human) [4]) [nM]	Kd (human IgG1 (human)) [nM]	Kd (human IgG2 (human)) [nM]	Kd (human IgG4 (human) [5]) [nM]	Kd (human IgG3 (human) [6]) [nM]	Substance
960	–	–	–	–	–	–	–	FcRn E133K (extracellular domain with beta2 microglobulin) (from UniProt P61769 21-119) (receptor)
480	1900	12600	4200	5200	6600	239	210	FcRn M118I (extracellular domain with beta2 microglobulin) (from UniProt P61769 21-119) (receptor)
440	1700	–	–	–	–	–	–	FcRn W131R (extracellular domain with beta2 microglobulin) (from UniProt P61769 21-119) (receptor)

— patent US20250297287A1
